These results are taken from paper doi:10.1101/2022.09.14.507916.

This assay deals with octameric HlgAB pore complex of γ-hemolysin (four HlgA and four HlgB, alternating) (Staphylococcus aureus (strain Newman)). The assay can be described thus: cryo-EM structure.

For the substance “octameric HlgAB pore complex of γ-hemolysin (four HlgA and four HlgB, alternating)”, the stoichiometry N turned out to be 6.
